Legend:
[1] = biological target: T1, huCD3de antigen (human CD3 delta/epsilon, coated on SPR chip) (human, UniProt P07766 23-126; P04234 22-105); assay: SPR (Biacore T200), huCD3de-coated chip, BsAb titrated over chip, two-state reaction model
T1 construct: Source and construct are not described; also called CD3 coated chips

[2] = biological target: T1, huCD3de antigen (human CD3 …); assay: SPR (Biacore T200), huCD3de-coated chip
[3] = biological target: T2, CD33 on MOLM13-fluc cells (UniProt P20138 18-364, limits assumed); assay: flow cytometry, CD33(+) MOLM13-fluc cells
T2 construct: whole, on cells; also called CD33(+) MOLM13-fluc
T2 sequence (P20138 18-364 limits assumed): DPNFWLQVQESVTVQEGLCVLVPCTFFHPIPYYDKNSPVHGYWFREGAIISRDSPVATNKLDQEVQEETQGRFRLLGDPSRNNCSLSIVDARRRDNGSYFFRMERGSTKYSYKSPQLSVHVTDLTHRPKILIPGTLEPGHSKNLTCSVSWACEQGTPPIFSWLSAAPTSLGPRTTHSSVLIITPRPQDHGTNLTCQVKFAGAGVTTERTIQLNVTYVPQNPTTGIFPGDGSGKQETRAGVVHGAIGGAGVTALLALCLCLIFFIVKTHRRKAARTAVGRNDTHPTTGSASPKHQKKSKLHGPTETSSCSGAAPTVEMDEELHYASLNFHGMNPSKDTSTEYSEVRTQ

T1 sequence (P07766 23-126, stated change not applied, chain 1 of 2): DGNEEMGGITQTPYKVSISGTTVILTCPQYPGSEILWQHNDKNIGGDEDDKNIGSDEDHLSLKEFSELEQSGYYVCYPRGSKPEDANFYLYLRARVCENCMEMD
T1 sequence (P04234 22-105, stated change not applied, chain 2 of 2): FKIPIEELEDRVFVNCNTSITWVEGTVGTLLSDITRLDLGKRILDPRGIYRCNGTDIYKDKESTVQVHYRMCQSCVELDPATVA

Binder	Kd [1]	Fold Change (KD CD3, against 2+2) [2]	binding result [3]
2+1 IgG-[L]-scFv variant, two anti-GD2 Fabs and one anti-CD3 scFv (2(GD2)+1(CD3)) (bispecific antibody, Heterodimer made by Fab arm exchange; Choice of the first anti-GD2 set as for m1; also called 2+1 BsAb) light 1: EIVMTQTPATLSVSAGERVTITCKASQSVSNDVTWYQQKPGQAPRLLIYSASNRYSGVPARFSGSGYGTEFTFTISSVQSEDFAVYFCQQDYSSFGQGTKLEIKRTVAAPSVFIFPPSDEQLKSGTASVVCLLNNFYPREAKVQWKVDNALQSGNSQESVTEQDSKDSTYSLSSTLTLSKADYEKHKVYACEVTHQGLSSPVTKSFNRGECTSGGGGSGGGGSGGGGSQVQLVQSGGGVVQPGRSLRLSCKASGYTFTRYTMHWVRQAPGKCLEWIGYINPSRGYTNYNQKFKDRFTISRDNSKNTAFLQMDSLRPEDTGVYFCARYYDDHYSLDYWGQGTPVTVSSGGGGSGGGGSGGGGSGGGGSGGGGSGGGGSDIQMTQSPSSLSASVGDRVTITCSASSSVSYMNWYQQTPGKAPKRWIYDTSKLASGVPSRFSGSGSGTDYTFTISSLQPEDIATYYCQQWSSNPFTFGCGTKLQITR light 2: EIVMTQTPATLSVSAGERVTITCKASQSVSNDVTWYQQKPGQAPRLLIYSASNRYSGVPARFSGSGYGTEFTFTISSVQSEDFAVYFCQQDYSSFGQGTKLEIKRTVAAPSVFIFPPSDEQLKSGTASVVCLLNNFYPREAKVQWKVDNALQSGNSQESVTEQDSKDSTYSLSSTLTLSKADYEKHKVYACEVTHQGLSSPVTKSFNRGEC heavy 1: QVQLVESGPGVVQPGRSLRISCAVSGFSVTNYGVHWVRQPPGKGLEWLGVIWAGGITNYNSAFMSRLTISKDNSKNTVYLQMNSLRAEDTAMYYCASRGGHYGYALDYWGQGTLVTVSSASTKGPSVFPLAPSSKSTSGGTAALGCLVKDYFPEPVTVSWNSGALTSGVHTFPAVLQSSGLYSLSSVVTVPSSSLGTQTYICNVNHKPSNTKVDKRVEPKSCDKTHTCPPCPAPELLGGPSVFLFPPKPKDTLMISRTPEVTCVVVDVSHEDPEVKFNWYVDGVEVHNAKTKPREEQYASTYRVVSVLTVLHQDWLNGKEYKCAVSNKALPAPIEKTISKAKGQPREPQVYTLPPSRDELTKNQVSLTCLVKGFYPSDIAVEWESNGQPENNYKTTPPVLDSDGSFLLYSKLTVDKSRWQQGNVFSCSVMHEALHNHYTQKSLSLSPGK heavy 2: QVQLVESGPGVVQPGRSLRISCAVSGFSVTNYGVHWVRQPPGKGLEWLGVIWAGGITNYNSAFMSRLTISKDNSKNTVYLQMNSLRAEDTAMYYCASRGGHYGYALDYWGQGTLVTVSSASTKGPSVFPLAPSSKSTSGGTAALGCLVKDYFPEPVTVSWNSGALTSGVHTFPAVLQSSGLYSLSSVVTVPSSSLGTQTYICNVNHKPSNTKVDKRVEPKSCDKTHTCPPCPAPELLGGPSVFLFPPKPKDTLMISRTPEVTCVVVDVSHEDPEVKFNWYVDGVEVHNAKTKPREEQYASTYRVVSVLTVLHQDWLNGKEYKCAVSNKALPAPIEKTISKAKGQPREPQVYTLPPSRDELTKNQVSLTCLVKGFYPSDIAVEWESNGQPENNYKTTPPVLDSDGSFFLYSRLTVDKSRWQQGNVFSCSVMHEALHNHYTQKSLSLSPGK	310 nM	30.1 fold	–
1+1C IgG-[L]-scFv variant, one anti-GD2 Fab and one anti-CD3 scFv in cis, second Fab irrelevant (anti-CD33) (bispecific antibody) light 1: EIVMTQTPATLSVSAGERVTITCKASQSVSNDVTWYQQKPGQAPRLLIYSASNRYSGVPARFSGSGYGTEFTFTISSVQSEDFAVYFCQQDYSSFGQGTKLEIKRTVAAPSVFIFPPSDEQLKSGTASVVCLLNNFYPREAKVQWKVDNALQSGNSQESVTEQDSKDSTYSLSSTLTLSKADYEKHKVYACEVTHQGLSSPVTKSFNRGECTSGGGGSGGGGSGGGGSQVQLVQSGGGVVQPGRSLRLSCKASGYTFTRYTMHWVRQAPGKCLEWIGYINPSRGYTNYNQKFKDRFTISRDNSKNTAFLQMDSLRPEDTGVYFCARYYDDHYSLDYWGQGTPVTVSSGGGGSGGGGSGGGGSGGGGSGGGGSGGGGSDIQMTQSPSSLSASVGDRVTITCSASSSVSYMNWYQQTPGKAPKRWIYDTSKLASGVPSRFSGSGSGTDYTFTISSLQPEDIATYYCQQWSSNPFTFGCGTKLQITR heavy 1: not shown light 2: EIVLTQSPATLSVSLGERATISCRASESVDNYGISFMNWFQQKPGQPPRLLIYAASNQGSGVPARFSGSGPGTDFTLTISSMEPEDFAMYFCQQSKEVPWTFGGGTKLEIKRTVAAPSVFIFPPSDEQLKSGTASVVCLLNNFYPREAKVQWKVDNALQSGNSQESVTEQDSKDSTYSLSSTLTLSKADYEKHKVYACEVTHQGLSSPVTKSFNRGEC heavy 2: not shown	110 nM	11 fold	–
1+1T IgG-[L]-scFv variant, one anti-GD2 Fab and one anti-CD3 scFv in trans, second Fab irrelevant (anti-CD33) (bispecific antibody) light 1: EIVMTQTPATLSVSAGERVTITCKASQSVSNDVTWYQQKPGQAPRLLIYSASNRYSGVPARFSGSGYGTEFTFTISSVQSEDFAVYFCQQDYSSFGQGTKLEIKRTVAAPSVFIFPPSDEQLKSGTASVVCLLNNFYPREAKVQWKVDNALQSGNSQESVTEQDSKDSTYSLSSTLTLSKADYEKHKVYACEVTHQGLSSPVTKSFNRGEC heavy 1: not shown light 2: EIVLTQSPATLSVSLGERATISCRASESVDNYGISFMNWFQQKPGQPPRLLIYAASNQGSGVPARFSGSGPGTDFTLTISSMEPEDFAMYFCQQSKEVPWTFGGGTKLEIKRTVAAPSVFIFPPSDEQLKSGTASVVCLLNNFYPREAKVQWKVDNALQSGNSQESVTEQDSKDSTYSLSSTLTLSKADYEKHKVYACEVTHQGLSSPVTKSFNRGECTSGGGGSGGGGSGGGGSQVQLVQSGGGVVQPGRSLRLSCKASGYTFTRYTMHWVRQAPGKCLEWIGYINPSRGYTNYNQKFKDRFTISRDNSKNTAFLQMDSLRPEDTGVYFCARYYDDHYSLDYWGQGTPVTVSSGGGGSGGGGSGGGGSGGGGSGGGGSGGGGSDIQMTQSPSSLSASVGDRVTITCSASSSVSYMNWYQQTPGKAPKRWIYDTSKLASGVPSRFSGSGSGTDYTFTISSLQPEDIATYYCQQWSSNPFTFGCGTKLQITR heavy 2: not shown	88 nM	8.5 fold	–
2+2 IgG-[L]-scFv, anti-CD33 Fab x anti-CD3 scFv (bispecific antibody, also called 2+2 (CD33); anti-CD33/CD3 IgG-[L]-scFv) light: EIVLTQSPATLSVSLGERATISCRASESVDNYGISFMNWFQQKPGQPPRLLIYAASNQGSGVPARFSGSGPGTDFTLTISSMEPEDFAMYFCQQSKEVPWTFGGGTKLEIKRTVAAPSVFIFPPSDEQLKSGTASVVCLLNNFYPREAKVQWKVDNALQSGNSQESVTEQDSKDSTYSLSSTLTLSKADYEKHKVYACEVTHQGLSSPVTKSFNRGECTSGGGGSGGGGSGGGGSQVQLVQSGGGVVQPGRSLRLSCKASGYTFTRYTMHWVRQAPGKCLEWIGYINPSRGYTNYNQKFKDRFTISRDNSKNTAFLQMDSLRPEDTGVYFCARYYDDHYSLDYWGQGTPVTVSSGGGGSGGGGSGGGGSGGGGSGGGGSGGGGSDIQMTQSPSSLSASVGDRVTITCSASSSVSYMNWYQQTPGKAPKRWIYDTSKLASGVPSRFSGSGSGTDYTFTISSLQPEDIATYYCQQWSSNPFTFGCGTKLQITR heavy: not shown	–	–	binds

Continued by falling Kd [1], values first:

Kd [1]	Fold Change (KD CD3, against 2+2) [2]	binding result [3]	Binder
70 nM	6.8 fold	–	IgG-Het, heterodimeric IgG with one anti-GD2 Fab and one anti-CD3 Fab (1+1) (bispecific antibody, also called 1+1H; 1 + 1H) light 1: EIVMTQTPATLSVSAGERVTITCKASQSVSNDVTWYQQKPGQAPRLLIYSASNRYSGVPARFSGSGYGTEFTFTISSVQSEDFAVYFCQQDYSSFGQGTKLEIKRTVAAPSVFIFPPSDEQLKSGTASVVCLLNNFYPREAKVQWKVDNALQSGNSQESVTEQDSKDSTYSLSSTLTLSKADYEKHKVYACEVTHQGLSSPVTKSFNRGEC heavy 1: not shown light 2: DIQMTQSPSSLSASVGDRVTITCSASSSVSYMNWYQQTPGKAPKRWIYDTSKLASGVPSRFSGSGSGTDYTFTISSLQPEDIATYYCQQWSSNPFTFGQGTKLQITRTVAAPSVFIFPPSDEQLKSGTASVVCLLNNFYPREAKVQWKVDNALQSGNSQESVTEQDSKDSTYSLSSTLTLSKADYEKHKVYACEVTHQGLSSPVTKSFNRGEC heavy 2: not shown
11 nM	1 fold	–	1+2 IgG-[L]-scFv variant, one anti-GD2 Fab, one irrelevant (anti-CD33) Fab, two anti-CD3 scFv (1(GD2)+2(CD3)) (bispecific antibody, also called 1+2 BsAb) light 1: EIVMTQTPATLSVSAGERVTITCKASQSVSNDVTWYQQKPGQAPRLLIYSASNRYSGVPARFSGSGYGTEFTFTISSVQSEDFAVYFCQQDYSSFGQGTKLEIKRTVAAPSVFIFPPSDEQLKSGTASVVCLLNNFYPREAKVQWKVDNALQSGNSQESVTEQDSKDSTYSLSSTLTLSKADYEKHKVYACEVTHQGLSSPVTKSFNRGECTSGGGGSGGGGSGGGGSQVQLVQSGGGVVQPGRSLRLSCKASGYTFTRYTMHWVRQAPGKCLEWIGYINPSRGYTNYNQKFKDRFTISRDNSKNTAFLQMDSLRPEDTGVYFCARYYDDHYSLDYWGQGTPVTVSSGGGGSGGGGSGGGGSGGGGSGGGGSGGGGSDIQMTQSPSSLSASVGDRVTITCSASSSVSYMNWYQQTPGKAPKRWIYDTSKLASGVPSRFSGSGSGTDYTFTISSLQPEDIATYYCQQWSSNPFTFGCGTKLQITR heavy 1: not shown light 2: EIVLTQSPATLSVSLGERATISCRASESVDNYGISFMNWFQQKPGQPPRLLIYAASNQGSGVPARFSGSGPGTDFTLTISSMEPEDFAMYFCQQSKEVPWTFGGGTKLEIKRTVAAPSVFIFPPSDEQLKSGTASVVCLLNNFYPREAKVQWKVDNALQSGNSQESVTEQDSKDSTYSLSSTLTLSKADYEKHKVYACEVTHQGLSSPVTKSFNRGECTSGGGGSGGGGSGGGGSQVQLVQSGGGVVQPGRSLRLSCKASGYTFTRYTMHWVRQAPGKCLEWIGYINPSRGYTNYNQKFKDRFTISRDNSKNTAFLQMDSLRPEDTGVYFCARYYDDHYSLDYWGQGTPVTVSSGGGGSGGGGSGGGGSGGGGSGGGGSGGGGSDIQMTQSPSSLSASVGDRVTITCSASSSVSYMNWYQQTPGKAPKRWIYDTSKLASGVPSRFSGSGSGTDYTFTISSLQPEDIATYYCQQWSSNPFTFGCGTKLQITR heavy 2: not shown
10 nM	–	–	2+2 IgG-[L]-scFv bispecific antibody, anti-GD2 Fab x anti-CD3 scFv (2(GD2)+2(CD3)) (bispecific antibody, Homodimeric format; also called 2+2 BsAb; parental 2+2) light: EIVMTQTPATLSVSAGERVTITCKASQSVSNDVTWYQQKPGQAPRLLIYSASNRYSGVPARFSGSGYGTEFTFTISSVQSEDFAVYFCQQDYSSFGQGTKLEIKRTVAAPSVFIFPPSDEQLKSGTASVVCLLNNFYPREAKVQWKVDNALQSGNSQESVTEQDSKDSTYSLSSTLTLSKADYEKHKVYACEVTHQGLSSPVTKSFNRGECTSGGGGSGGGGSGGGGSQVQLVQSGGGVVQPGRSLRLSCKASGYTFTRYTMHWVRQAPGKCLEWIGYINPSRGYTNYNQKFKDRFTISRDNSKNTAFLQMDSLRPEDTGVYFCARYYDDHYSLDYWGQGTPVTVSSGGGGSGGGGSGGGGSGGGGSGGGGSGGGGSDIQMTQSPSSLSASVGDRVTITCSASSSVSYMNWYQQTPGKAPKRWIYDTSKLASGVPSRFSGSGSGTDYTFTISSLQPEDIATYYCQQWSSNPFTFGCGTKLQITR heavy: not shown

Source: patent US20220098329A1 (Memorial Sloan Kettering, published 2022)
